Patent publication US20070059320A1

Target: NADH dehydrogenase subunit 2 (ND2), native protein in brain lysates, PSD preparations, hippocampal neurons and tissues (rat) (UniProt P11662)
Experiment: cell-based or functional assay

NADH dehydrogenase subunit 2 (ND2), native protein in brain lysates, PSD preparations, hippocampal neurons and tissues (rat), sequence (P11662 whole entry): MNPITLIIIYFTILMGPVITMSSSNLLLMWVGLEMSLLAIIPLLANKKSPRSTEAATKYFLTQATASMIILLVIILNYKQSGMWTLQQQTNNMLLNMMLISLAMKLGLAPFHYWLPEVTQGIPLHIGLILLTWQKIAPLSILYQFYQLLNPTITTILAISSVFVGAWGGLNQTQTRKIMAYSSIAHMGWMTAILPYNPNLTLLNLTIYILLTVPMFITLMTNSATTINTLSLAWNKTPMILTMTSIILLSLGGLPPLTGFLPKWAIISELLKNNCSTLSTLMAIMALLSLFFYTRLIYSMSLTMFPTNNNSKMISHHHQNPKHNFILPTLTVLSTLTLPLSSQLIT

NMDAR component of mEPSCs (cultured hippocampal neurons, whole-cell recording): 56%
Substance: Src40-58 peptide (amino acid residues 40-58 of SEQ ID NO:4)
